Measured values taken from PMC7244511, “Phosphoproteomics identifies dual-site phosphorylation in an extended basophilic motif regulating FILIP1-mediated degradation of filamin-C” (Communications Biology, 2020).

T1: FILIP1 CT-GFP (expressed in HEK293 cells) (UniProt Q7Z7B0-2 776-1177)
T1 construct: FILIP1 carboxy-terminus (CT); also called FILIP1-GFP CT; wild-type FILIP1 CT-GFP; source: HEK293 (HEK293T), transfected, in lysate
T1 sequence (looked up): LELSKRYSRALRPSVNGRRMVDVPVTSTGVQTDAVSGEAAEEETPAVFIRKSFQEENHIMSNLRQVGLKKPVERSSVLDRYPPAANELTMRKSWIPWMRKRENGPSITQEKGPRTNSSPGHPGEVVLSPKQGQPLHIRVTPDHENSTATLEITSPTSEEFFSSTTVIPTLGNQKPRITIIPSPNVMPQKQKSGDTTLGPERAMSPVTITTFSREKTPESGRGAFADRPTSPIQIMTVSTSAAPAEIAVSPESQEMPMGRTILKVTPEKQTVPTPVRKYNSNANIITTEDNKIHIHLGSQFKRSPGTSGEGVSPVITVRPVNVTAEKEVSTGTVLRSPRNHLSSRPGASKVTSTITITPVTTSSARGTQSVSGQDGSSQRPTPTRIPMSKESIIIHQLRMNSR

B1: recombinant hFLNc d19–21, wild type (domain or fragment, human, UniProt Q14315 2036-2410, looked up)
chain: SEIGDASKVRVWGKGLSEGHTFQVAEFIVDTRNAGYGGLGLSIEGPSKVDINCEDMEDGTCKVTYCPTEPGTYIINIKFADKHVPGSPFTVKVTGEGRMKESITRRRQAPSIATIGSTCDLNLKIPGNWFQMVSAQERLTRTFTRSSHTYTRTERTEISKTRGGETKREVRVEESTQVGGDPFPAVFGDFLGRERLGSFGSITRQQEGEASSQDMTAQVTSPSGKVEAAEIVEGEDSAYSVRFVPQEMGPHTVAVKYRGQHVPGSPFQFTVGPLGEGGAHKVRAGGTGLERGVAGVPAEFSIWTREAGAGGLSIAVEGPSKAEIAFEDRKDGSCGVSYVVQEPGDYEVSIKFNDEHIPDSPFVVPVASLSDDARR
notes: human filamin-C, Ig-like domains 19–21; also called wildtype hFLNc d19–21; non-phosphorylated hFLNc d19–21

Assays:
[1] = molecular target: FILIP1 (filamin A-interacting protein 1), carboxy-terminus (CT) carboxy-terminus (CT) (UniProt Q7Z7B0); experiment: co-immunoprecipitation, quantitative immunoblot; conditions: reference: wild type; sites S2233,S2236
[2] = molecular target: FILIP1 (filamin A-interacting protein 1), carboxy-terminus (CT) carboxy-terminus (CT) (UniProt Q7Z7B0); experiment: anti-Myc co-immunoprecipitation, quantitative immunoblot; conditions: reference: wild type; sites S2233,S2236
[3] = molecular target: T1, FILIP1 CT-GFP (expressed in HEK293 …); experiment: fluorescence correlation spectroscopy (competition); recombinant FLNc d19–21 (44,000 to 21 nM) or its DD mutant (60,000 to 78 nM) titrated to HEK293T lysate with FILIP1 CT-GFP bound to Myc-hFLNc d18–21 DD; PBS pH 7.4, 0.05% Tween-20, 20 °C; conditions: one partner purified

Row | Molecule | binding against the reference [1] | binding against the reference [2] | Kd [3] [nM]
1 | human filamin-C (hFLNc) Ig-like domains 18-21 (d18–21) (from UniProt Q14315) AA (S2233A/S2236A) | stronger | stronger | –
2 | B1 | – | – | 1170
